{"source": "patent US11149086B2", "about": "“KV1.3 binding immunoglobulins” (Ablynx N.V., priority 2014, dated 2021)", "molecules": {"B1": {"name": "A019400003: monovalent anti-Kv1.3 Nanobody, family 1 (protein)", "VHH": "EVQLVESGGGLVQAGGSLSLSCTASGGTFRNFGMGWFRQAQGKEREFVAAISRTGGHTYYQDSVKGRFTISKDNAKNILSLQMNSLKPEDTAVYYCAARFRFGDGTYYYQRAFYDFWGQGTQVTVSS", "modifications": "Nanobody sequence"}}, "key": {"[1]": {"test_system": "CCR7−CD45RA− T cells", "format": "cell-based, human", "excerpt": "The purified anti-Kv1.3 Nanobodies were characterized in a T Cell-activation assay. Human T Cells were first collected from Buffy Coat blood (from healthy volunteers, Bloodbank Gent) using RosetteSep (StemCell Technologies, #15061) followed by an enrichment on Ficoll-Paque™ PLUS (GE Healthcare #17-1440-03). CCR7−CD45RA− T cells were isolated through negative selection using biotinylated antibodies against CD45RA (BD Bioscience #624008) and CCR7 (BD Bioscence #624009) in addition to the Dynabeads Biotin Binder (Invitrogen #110.47). The purity of the population was afterwards checked with anti-CD3 (eBioscience #12-0037-73); anti-CD8 (BD Bioscience #345775); anti-CD4 (BD Bioscience #345771); anti-CD45RO (BD Bioscience #555493); anti-CD45RA (BD Bioscience #550855); anti-rat IgG (Jackson ImmunoResearch Laboratories #112-116-143); anti-CD19 (BD Bioscience #555413) and anti-Human CCR7 (R&D Systems #MAB197) labeled antibodies in flow cytometric assay.\nIsolated CCR7^−CD45RA^− T Cells were then stimulated on anti-CD3 (eBioscience 16-0037-85; 540 ng/ml) coated 96-well plates at a concentration of 200 000 cells/well in absence or presence of dilution series of anti-Kv1.3 antibodies and ShK positive control (Smartox, #08SHK001). After 72 h, IFN-gamma production was measured with anti-human IFNγ antibody capture in ELISA (BD Bioscence #551221) combined with biotinylated anti-human IFNγ (BD Bioscience, #554550) and streptavidin-HRP (Dakocytomation #P0397) as detection (FIG. 11A-11B).\nIn addition, also CD25 expression was measured in flow cytometry, using an anti-CD25 antibody (BD Pharmingen, cat 557138) (FIG. 11C-11D). […]"}, "[2]": {"molecular_target": "T1, human Kv1.3 (Homo sapiens, UniProt P22001)", "T1 construct": "cell lines stably expressing the full length human Kv1.3 channel", "T1 sequence (P22001 whole entry)": "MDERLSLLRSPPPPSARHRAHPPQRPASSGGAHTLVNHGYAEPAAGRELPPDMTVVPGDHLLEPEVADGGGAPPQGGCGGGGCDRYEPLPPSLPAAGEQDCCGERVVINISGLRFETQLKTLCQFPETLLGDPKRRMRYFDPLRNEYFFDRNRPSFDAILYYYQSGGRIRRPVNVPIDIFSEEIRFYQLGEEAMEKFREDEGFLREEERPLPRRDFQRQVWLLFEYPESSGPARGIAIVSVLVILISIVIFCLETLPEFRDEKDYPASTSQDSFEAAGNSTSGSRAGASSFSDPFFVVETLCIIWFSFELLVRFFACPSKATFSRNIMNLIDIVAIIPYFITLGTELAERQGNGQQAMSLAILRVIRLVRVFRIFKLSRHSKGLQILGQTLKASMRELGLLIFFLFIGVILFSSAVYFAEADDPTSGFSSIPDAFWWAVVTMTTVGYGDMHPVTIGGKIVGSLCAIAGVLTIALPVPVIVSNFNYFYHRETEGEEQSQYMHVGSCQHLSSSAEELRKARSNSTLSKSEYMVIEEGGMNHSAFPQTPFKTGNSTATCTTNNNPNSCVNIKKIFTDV", "assay": "IonWorks Quattro automated perforated patch clamp, Kv1.3-expressing CHL cells", "format": "cell-based", "details": "6 to 7 min incubation", "excerpt": "Selected Nanobodies were electrophysiologically characterized on human Kv1.3 on the IonWorks automated perforated-Patch Clamp using Kv1.3-expressing Chinese Hamster Lung (CHL) cells. The procedure for evaluating the modulatory effect of the purified Nanobodies on human Kv1.3 via electrophysiological recordings is given below.\nIonWorks Quattro (Molecular Devices) is a second-generation screening instrument that provides membrane voltage control and provides a direct electrophysiological assay for screening and characterization of compounds. It is an automated, high-throughput planar perforated patch clamp that uses a 384-well PatchPlate™ substrate.\nExtracellular solution contained (in mM): 138 NaCl, 2.7 KCl, 0.9 CaCl2, 0.5 MgCl2, 8 Na2HPO4, and 1.5 KH2PO4 (pH 7.3 with NaOH, and 285-290 mOsmolar). The intracellular solution contained (in mM): 100 K-gluconate, 40 KCl, 3.2 EGTA, 5 HEPES and 3.2 MgCl2 (pH 7.3 with KOH, and 300-315 mOsmolar). These solutions were freshly made, stocked for no longer than a month at 4° C. and filtered prior to use. The selected Nanobodies were directly diluted in extracellular solution to obtain a 3 μM sample solution. […]\nThe basic principles of IonWorks automated patch clamp electrophysiology are described by Schroeder et al. (J Biomol Screen 8(1):50-64, 2003). […] In PPC mode, an ensemble average of the current from up to 64 cells per well was recorded. […]"}}}
{"molecule": "B1", "values": [{"measurement": "inhibition of T-cell stimulation (IFNγ, CD25), in words", "setting": "[1]; anti-CD3 stimulation", "result": "did not block"}, {"measurement": "IC50 (in M) CD25 read out", "setting": "[1]; monovalent Nanobodies, plate bound anti-CD3", "result": "no effect"}, {"measurement": "IC50 (in M) IFNγ read out", "setting": "[1]; monovalent Nanobodies, plate bound anti-CD3, 72 h", "result": "no effect"}, {"measurement": "effect on Kv1.3 current traces on IonWorks, in words", "setting": "[2]", "result": "biphasic modulatory effect"}]}
